Laboratory results published in the Human Domainome abundance scans (Beltran et al. 2025).
± gives the uncertainty stated by the source.

B1: POU domain, class 3, transcription factor 4, residues 280 to 335; numbered along this chain, P49335 (parent)
chain: KKRTSIEVSVKGVLETHFLKCPKPAAQEISSLADSLQLEKEVVRVWFCNRRQKEKR

Variants of: B1
Experiment: abundance fitness (aPCA) (normalised: wild type 0, dead -1); higher = more abundant; growth selection in yeast, the domain comes from the species named
Conditions: Homo sapiens

Compared with KKWTSIEVSVKGVLETHFLKCPKPAAQEISSLADSLQLEKEVVRVWFCNRRQKEKR [R3W], KKPTSIEVSVKGVLETHFLKCPKPAAQEISSLADSLQLEKEVVRVWFCNRRQKEKR [R3P] is higher in abundance fitness: -0.706 ± 0.22 for the first, 0.122 ± 0.16 for the second.

KKRTSIEVSVKGVLETHFLKCPKPAAQEISALADSLQLEKEVVRVWFCNRRQKEKR [S31A] and KKRTSIEVSVKGVLETHFLKCPKPAAQEISFLADSLQLEKEVVRVWFCNRRQKEKR [S31F] are within error of each other in abundance fitness: 0.006 ± 0.15 for the first, -0.059 ± 0.16 for the second.

Going from KKRTSIEVSVKGVLETHFLKCPKPAAQEISTLADSLQLEKEVVRVWFCNRRQKEKR [S31T] to KKRTSIEVSVKGVLETHFLKCPKPAAQVISSLADSLQLEKEVVRVWFCNRRQKEKR [E28V], the abundance fitness falls from 0.035 ± 0.15 to -0.398 ± 0.11.

KKRTSIEVSVKGVLETHFLKCPKPAAQNISSLADSLQLEKEVVRVWFCNRRQKEKR [E28N] and KKRTSIEVSVKGVLETHFLKCPKPAAQYISSLADSLQLEKEVVRVWFCNRRQKEKR [E28Y] are within error of each other in abundance fitness: -0.123 ± 0.28 for the first, -0.382 ± 0.21 for the second.

Going from KKRTSISVSVKGVLETHFLKCPKPAAQEISSLADSLQLEKEVVRVWFCNRRQKEKR [E7S] to KKRTSIEVSVKGVLETHFLKCPKPAAQEISSLADSLQLEKEVIRVWFCNRRQKEKR [V43I], the abundance fitness falls from 0.528 ± 0.083 to -0.543 ± 0.2.

KKRTSIEVSVKGVLETHFLKCPKPAAQEISSLADSLQLEKEVERVWFCNRRQKEKR [V43E] and KKRTSIEVSVKGVLETHFLKCPKPAAQEISSLADSLQLEKEVCRVWFCNRRQKEKR [V43C] are within error of each other in abundance fitness: -0.815 ± 0.33 for the first, -0.832 ± 0.27 for the second.

KKRTSIEVSVKGVLETHFLKCPKPAAQEISSLADSLQLEKEVVRVWFCNRRQFEKR [K53F] and KKRTSIEVSVKGVLETHFLKCPKPAAQEISSLADSLQLEKEVVRVWFCNRRQEEKR [K53E] are within error of each other in abundance fitness: -0.027 ± 0.29 for the first, 0.194 ± 0.18 for the second.

First: KKRTSIEVSVKGVLETHFLKCPKPAAQEISSLADSLQLEKEVVGVWFCNRRQKEKR [R44G]
Second: KKRTSIEVSVKGVLETHFLKCYKPAAQEISSLADSLQLEKEVVRVWFCNRRQKEKR [P22Y]
The abundance fitness of the first is higher: -0.473 ± 0.14 for the first, -0.949 ± 0.33 for the second.

KKRTSIEVSVKGVLETHFLKCCKPAAQEISSLADSLQLEKEVVRVWFCNRRQKEKR [P22C] and KKRTSIEVSVKGVLETHFLKCRKPAAQEISSLADSLQLEKEVVRVWFCNRRQKEKR [P22R] are within error of each other in abundance fitness: -0.502 ± 0.27 for the first, -0.37 ± 0.15 for the second.

KKRTSIEVSVKGVLETHFLNCPKPAAQEISSLADSLQLEKEVVRVWFCNRRQKEKR [K20N] and KKRTSIEVSVKGVLETHFLVCPKPAAQEISSLADSLQLEKEVVRVWFCNRRQKEKR [K20V] are within error of each other in abundance fitness: -0.475 ± 0.18 for the first, -0.429 ± 0.12 for the second.

KKRTSIEVSVKGVLETHFLKCPKPRAQEISSLADSLQLEKEVVRVWFCNRRQKEKR [A25R] and KKRTSIEVSVKGVLETHFLKCPKPANQEISSLADSLQLEKEVVRVWFCNRRQKEKR [A26N] are within error of each other in abundance fitness: -0.088 ± 0.096 for the first, -0.043 ± 0.22 for the second.

KKRTSIEVSVKGVLETHFLKCPKYAAQEISSLADSLQLEKEVVRVWFCNRRQKEKR [P24Y] and KKRTSIEVSVKGVLETHFLKCPKPAAQEISSLADSLQLEKEVVRVWFCNRRQKEIR [K55I] are within error of each other in abundance fitness: -1.07 ± 0.43 for the first, -0.604 ± 0.27 for the second.

KKRTSIEVSVKGVLETHFLKCPKPAAQEISSLADSLQLEKEVVRVWFCNRRQKENR [K55N] and KKRTSIEVSVKGVLETHFLKSPKPAAQEISSLADSLQLEKEVVRVWFCNRRQKEKR [C21S] are within error of each other in abundance fitness: -0.147 ± 0.22 for the first, -0.072 ± 0.12 for the second.

First: KKRTSIEVSVKGELETHFLKCPKPAAQEISSLADSLQLEKEVVRVWFCNRRQKEKR [V13E]
Second: KKRTSIEVSVKGGLETHFLKCPKPAAQEISSLADSLQLEKEVVRVWFCNRRQKEKR [V13G]
The abundance fitness of the first is higher: -0.182 ± 0.26 for the first, -0.662 ± 0.18 for the second.

KKRTSIEVSMKGVLETHFLKCPKPAAQEISSLADSLQLEKEVVRVWFCNRRQKEKR [V10M] and DKRTSIEVSVKGVLETHFLKCPKPAAQEISSLADSLQLEKEVVRVWFCNRRQKEKR [K1D] are within error of each other in abundance fitness: 0.058 ± 0.38 for the first, -0.185 ± 0.49 for the second.

KKRTSIEVSVKGVLETHFLKCPKPAAQEISSLADSLQLEKEVVRVWFCNCRQKEKR [R50C] and KKRTSIEVSVKGVLETHFLKCPKPAAQEISSLADSLQLEKEVVRVWFCNPRQKEKR [R50P] are within error of each other in abundance fitness: -0.769 ± 0.36 for the first, -0.87 ± 0.23 for the second.

KKRTSIEVSVKGVLETHFLKCPKPAAQEISSLADSLQLEKEVVRVWFCNKRQKEKR [R50K] and KKRTSIEVSVKGVLECHFLKCPKPAAQEISSLADSLQLEKEVVRVWFCNRRQKEKR [T16C] are within error of each other in abundance fitness: -0.446 ± 0.2 for the first, -0.283 ± 0.26 for the second.

Going from KKRTSIEVSVKGVLETHFLKCPKPAAQEISSLADSLQLEKEVVRVWFCNRRQKEKG [R56G] to KKRTSIEVSVKGVLETHFLKCPKPAAQEISSLADSLQLEKEVVRVWFCNRPQKEKR [R51P], the abundance fitness falls from -0.325 ± 0.19 to -0.834 ± 0.25.

First: KKRTSIEVSVKGVLETHFLKCPKPAAQEISSLADSLQLENEVVRVWFCNRRQKEKR [K40N]
Second: KKRTSIEVSVKGVLETHFLKCPKPAAQEISSGADSLQLEKEVVRVWFCNRRQKEKR [L32G]
The abundance fitness of the first is higher: -0.248 ± 0.28 for the first, -0.784 ± 0.22 for the second.

KKRTSIEVSVKGVLETHFLKCPKPAAQEISSEADSLQLEKEVVRVWFCNRRQKEKR [L32E] and KKRTSIEVSVKGVLETHFLKCPKPAAQEISSPADSLQLEKEVVRVWFCNRRQKEKR [L32P] are within error of each other in abundance fitness: -0.631 ± 0.36 for the first, -0.176 ± 0.34 for the second.

KKRTSIEVSVKGVLETHFLKCPKPAAQEISSCADSLQLEKEVVRVWFCNRRQKEKR [L32C] and KKRTSIEVSVKGVLETHFLKCPKPAAQEISSLAQSLQLEKEVVRVWFCNRRQKEKR [D34Q] are within error of each other in abundance fitness: -0.633 ± 0.25 for the first, -0.183 ± 0.21 for the second.

Going from KKRTSIEVSVKGVLETHFLKCPKPAAQEISSLAWSLQLEKEVVRVWFCNRRQKEKR [D34W] to KKRTSIEVSVKGVLETHFLKCPKPAAQEISSLADSLQLEKEVVRYWFCNRRQKEKR [V45Y], the abundance fitness rises from -0.801 ± 0.16 to -0.372 ± 0.25.

KKRTSIEVSVKGVLETHFLKCPKPAAQEISSLADSLQLEKEVVRQWFCNRRQKEKR [V45Q] and KKRTSIEVSVKGVLETHFLKCPKPAAQEISSLADSLHLEKEVVRVWFCNRRQKEKR [Q37H] are within error of each other in abundance fitness: 0.156 ± 0.14 for the first, 0.104 ± 0.22 for the second.

KKRTFIEVSVKGVLETHFLKCPKPAAQEISSLADSLQLEKEVVRVWFCNRRQKEKR [S5F] showed an abundance fitness of -0.155 ± 0.21.
